Data from patent US20240101687A1 (ABL BIO, published 2024).
Values belong to the binder of their own block, whether it stands above or below them.

Experiments:
[1] = molecular target: T1, human IGF1R extracellular domain, His-tagged (human, UniProt P08069 31-932); assay: ELISA, IGF1R coated, anti-human Fab-HRP
T1 construct: Bought (R&D Systems 391-GR or Sino Biological 10164-H08H); also called recombinant IGF1R; ECD of IGF1R
Experimental: To this end, firstly, human, monkey, mouse and rat IGF1R antigens were diluted to 1 ug/ml, added to each well 100 ul, and reacted at 4° C. for 15 hours to be coated on the bottom of the plate. After removing the supernatant, 200 ul of PBS buffer containing 3% BSA was treated in each well to block non-specific binding. The anti-IGF1R antibodies were diluted by 5 times in PBSB (BSA 3% in PBS) at a maximum concentration of 400 nM, treated in each well, and reacted at 37° C. for 1 hour. Then, after washing with PBS buffer 5 times, the anti-human Fab HRP recognizing the Fab portion of the bound antibody was diluted 1:20000 was treated at 100 ul of each well, and reacted at 37° C. for 1 hour. The product was washed 5 times with PBS buffer and the color development was performed with TMB (Tetramethylbenzidine, Sigma, T0440) according to the manufacturer's method. […] When many samples are used in the ELISA analysis, the plates were divided into two.

[2] = molecular target: T1, human IGF1R extracellular domain, …; assay: SPR (Biacore), human IGF1R ECD-His captured by anti-His antibody on CM4 chip, 1564-IgG as analyte, bivalent analyte fit, 25 C; lower panel
Experimental: (§1) The anti-his antibody against the His tag bound to the human IGF1R ECD as an antigen was diluted to 20 μg/ml in acetate pH4.0 buffer, and then immobilized in the reference/analytic channel of the CM4 chip to 10,000 RU as a target RU according to the amine coupling method. During capture, PBS was used as a running buffer, and the flow rate was maintained at 30 μL/min. During association/dissociation, the flow rate was 40 μL/min, and PBS was used as the running buffer. The association/dissociation was 5 minutes and 20 minutes, respectively.

[3] = molecular target: T1, human IGF1R extracellular domain, …; assay: SPR (Biacore T200), His-tagged human IGF1R ECD captured by anti-His antibody on CM4 chip, bivalent model; 1564 IgG
Experimental: as §1

[4] = molecular target: T2, mouse IGF1R on bEND.3 brain endothelial cells (mouse, UniProt Q60751 31-1373); assay: FACS on bEND.3 mouse brain endothelial cells; MFI of secondary Ab only 3.20
T2 construct: whole, on cells; also called IGF1R expressed on the surface of brain endothelial cells

[5] = molecular target: T1, human IGF1R extracellular domain, …; assay: SPR (Biacore), human IGF1R ECD-His captured by anti-His antibody on CM4 chip, 1564-IgG as analyte, bivalent analyte fit, 25 C; upper panel
Experimental: as §1

[6] = molecular target: T3, human alpha-synuclein aggregates (fibrils) (human, UniProt P37840 1-140); assay: ELISA, alpha-synuclein aggregates coated at 1 ug/ml, antibody titrated 5-fold from 400 nM, anti-human Fc-HRP; C of the 4-P fit
Experimental: (§2) The alpha-synuclein aggregates were coated on a 96-well plate at a concentration of 1 ug/ml for 18 hours, and after washing, was treated with each antibody by diluting by 5 times from 400 nM. The bound antibodies were bound to anti-human Fc-HRP and then performed by color development with TMB solution, to measure the degree of binding of the antibody.

[7] = molecular target: T4, amyloid beta1-42 aggregates (UniProt P05067 672-713); assay: dot blot, monomer and fibril of each protein spotted in rising amounts, antibody as probe
T4 construct: domain: amyloid beta1-42; aggregates prepared by Prof; Seung-jae Lee; also called amyloid beta1-42-derived aggregates
Experimental: (§3) The specific binding ability of the antibodies to the alpha-synuclein aggregate was analyzed by reacting with a blot.

[8] = molecular target: T5, Aβ42 (Monomer) (human, UniProt P05067); assay: as above
T5 construct: recombinant, monomer (not aggregated); m20 is the aggregated form; also called amyloid beta1-42 monomer
Experimental: as §3

[9] = molecular target: T3, human alpha-synuclein aggregates …; assay: SPR (BIAcore), antibody captured on Protein A chip, alpha-synuclein fibril (sample aSyn180330) as analyte, 1:1 binding fit, 25 C
Experimental: (§4) The running buffer, analyte dilution, and the sample dilution buffer were HBS-EP. […] For the capture, the monomer was for RU of 800 (theoretical), and a fibril was for RU of 100 (theoretical). The capture phase was performed at contact time of 60 seconds, a flow rate of 30 μl/min, and a stabilization period of 180 seconds. The association phase was performed at the association time of 120 seconds and the flow rate was 30 μl/min. The dissociation phase was performed at the dissociation time of 360 seconds and the flow rate of 30 l/min. The regeneration phase was performed twice time at the regeneration time of 240 seconds (primary) and 60 seconds (secondary) and a flow rate of 30 μl/min. The fitting was carried out suing 1:1 binding model, and the evaluation software was BIACore T200 Evaluation software (GE healthcare).

[10] = molecular target: T3, human alpha-synuclein aggregates …; assay: ELISA, alpha-synuclein aggregates coated, antibody titrated up to 400 nM; C of the 4-P fit
Experimental: as §2

[11] = molecular target: T6, human gamma-synuclein (human, UniProt O76070 1-127, limits assumed); assay: ELISA, human gamma-synuclein coated at 100 ng/ml
T6 construct: bought
Text: (§5) For the positive control, RP-bound goat anti-rabbit was used as a detection antibody.

[12] = molecular target: T3, human alpha-synuclein aggregates …; assay: BIAcore as in Example 4-3, α-syn aggregates
Experimental: as §4

[13] = molecular target: T3, human alpha-synuclein aggregates …; assay: SPR (BIAcore), antibody captured on Protein A chip, alpha-Syn fibril as analyte, 1:1 binding fit, 25 C
[14] = molecular target: T7, human beta-synuclein (human, UniProt Q16143 1-134, limits assumed); assay: ELISA, human beta-synuclein coated at 100 ng/ml
T7 construct: bought
Text: as §5

[15] = molecular target: T8, Tau protein aggregates (UniProt P10636-8 1-441, limits assumed); assay: dot blot
T8 construct: aggregates prepared by Prof; Seung-jae Lee; also called tau-derived aggregates

[16] = molecular target: T3, human alpha-synuclein aggregates …; assay: sandwich ELISA, antibody coated 0.04-400 nM, fibril aggregates 2000 ng/ml
Experimental: Specifically, each antibody was diluted at 1/10 ratio of concentrations 0.04 to 400 nM and was coated on a 96-well plate, and then each well was treated with synuclein fibril aggregates were treated at 2000 ng/ml. After washing with 1×PBS, streptavidin conjugated with HRP and secondary antibody conjugate with biotin was treated and then reacted with TMB as a substrate. The absorbance was measured.

[17] = molecular target: T1, human IGF1R extracellular domain, …; assay: ELISA on coated IGF1R, antibody titrated up to 400 nM; C of the 4-P fit, D 0.945; curve at baseline up to 16 nM, about 0.2 at 80 nM and 0.75 at 400 nM, no plateau in the data; the text says the single antibody did not bind
[18] = molecular target: T1, human IGF1R extracellular domain, …; assay: ELISA on coated IGF1R, antibody titrated up to 400 nM; C of the 4-P fit, D 2.68; curve at baseline up to about 3 nM, about 0.8 at 80 nM and 1.75 at 400 nM, no plateau in the data; the text says the single antibody did not bind
[19] = molecular target: T2, mouse IGF1R on bEND.3 brain endothelial …; assay: FACS on bEND.3 mouse brain endothelial cells

T2 sequence (Q60751 31-1373): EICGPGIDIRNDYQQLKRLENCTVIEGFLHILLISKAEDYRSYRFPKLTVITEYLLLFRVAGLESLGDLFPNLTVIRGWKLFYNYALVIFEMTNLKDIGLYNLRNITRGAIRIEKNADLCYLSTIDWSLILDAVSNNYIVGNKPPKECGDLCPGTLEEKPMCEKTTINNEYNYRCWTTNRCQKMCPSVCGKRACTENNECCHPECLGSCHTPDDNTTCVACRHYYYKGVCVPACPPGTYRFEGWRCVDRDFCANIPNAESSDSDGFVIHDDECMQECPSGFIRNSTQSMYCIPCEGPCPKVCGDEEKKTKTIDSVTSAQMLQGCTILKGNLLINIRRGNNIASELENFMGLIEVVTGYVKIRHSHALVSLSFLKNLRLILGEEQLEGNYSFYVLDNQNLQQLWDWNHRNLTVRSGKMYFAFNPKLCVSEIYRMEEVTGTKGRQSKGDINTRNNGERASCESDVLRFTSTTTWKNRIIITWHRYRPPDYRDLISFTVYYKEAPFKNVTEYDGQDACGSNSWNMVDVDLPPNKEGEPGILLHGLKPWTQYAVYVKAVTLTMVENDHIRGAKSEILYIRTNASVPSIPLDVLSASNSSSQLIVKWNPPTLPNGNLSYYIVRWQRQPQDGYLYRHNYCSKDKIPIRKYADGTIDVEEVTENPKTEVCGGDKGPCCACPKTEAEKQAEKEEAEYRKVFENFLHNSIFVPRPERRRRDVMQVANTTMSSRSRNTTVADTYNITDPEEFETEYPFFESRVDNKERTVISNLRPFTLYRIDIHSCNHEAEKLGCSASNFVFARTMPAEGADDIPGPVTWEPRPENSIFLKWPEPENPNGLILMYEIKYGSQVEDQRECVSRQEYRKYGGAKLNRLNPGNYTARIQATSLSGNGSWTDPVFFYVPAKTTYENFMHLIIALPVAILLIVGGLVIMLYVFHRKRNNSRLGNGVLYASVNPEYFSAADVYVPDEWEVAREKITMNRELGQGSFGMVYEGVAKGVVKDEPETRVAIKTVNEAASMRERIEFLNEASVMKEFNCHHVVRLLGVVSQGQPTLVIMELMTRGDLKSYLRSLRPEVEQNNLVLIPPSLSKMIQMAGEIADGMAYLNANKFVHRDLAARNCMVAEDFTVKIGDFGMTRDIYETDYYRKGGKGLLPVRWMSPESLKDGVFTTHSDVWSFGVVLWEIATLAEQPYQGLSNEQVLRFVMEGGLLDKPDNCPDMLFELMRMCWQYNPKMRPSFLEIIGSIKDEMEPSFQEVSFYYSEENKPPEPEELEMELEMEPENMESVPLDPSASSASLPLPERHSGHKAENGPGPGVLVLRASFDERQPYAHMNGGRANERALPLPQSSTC
T7 sequence (Q16143 whole entry): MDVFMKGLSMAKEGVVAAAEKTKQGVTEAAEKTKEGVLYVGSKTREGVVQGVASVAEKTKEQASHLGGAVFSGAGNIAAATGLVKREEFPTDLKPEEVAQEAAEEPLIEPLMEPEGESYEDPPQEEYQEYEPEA
T6 sequence (O76070 whole entry): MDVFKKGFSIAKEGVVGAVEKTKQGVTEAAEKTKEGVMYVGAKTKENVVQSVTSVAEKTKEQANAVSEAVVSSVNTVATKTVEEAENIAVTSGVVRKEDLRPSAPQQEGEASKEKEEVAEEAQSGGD
T8 sequence (P10636 other isoform, or with tags, fused parts or gaps limits assumed): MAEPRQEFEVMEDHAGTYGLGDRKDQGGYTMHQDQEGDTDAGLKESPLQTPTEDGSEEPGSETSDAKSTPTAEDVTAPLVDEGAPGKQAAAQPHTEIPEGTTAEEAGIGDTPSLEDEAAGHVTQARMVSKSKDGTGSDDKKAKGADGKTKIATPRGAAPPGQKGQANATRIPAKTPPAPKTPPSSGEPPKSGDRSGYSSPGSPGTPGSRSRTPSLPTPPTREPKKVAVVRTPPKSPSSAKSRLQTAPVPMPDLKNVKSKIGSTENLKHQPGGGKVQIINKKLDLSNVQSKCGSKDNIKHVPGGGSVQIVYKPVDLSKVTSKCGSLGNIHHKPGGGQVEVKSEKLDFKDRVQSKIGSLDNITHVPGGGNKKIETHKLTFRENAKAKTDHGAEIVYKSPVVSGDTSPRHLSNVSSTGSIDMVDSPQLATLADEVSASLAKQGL

EC50 [1]: 0.0823 nM
koff [2]: 2.53e-06 s⁻¹
Kd [3]: 2.53 nM
MFI [4]: 7.55
koff [5]: 2.41e-06 s⁻¹
kon [5]: 902 M⁻¹ s⁻¹
B1: 1564 IgG (antibody, V domains shown)
VH: EVQLLESGGGLVQPGGSLRLSCAASGFTFSSYDMSWVRQAPGKGLEWVSAISYDNGNTYYADSVKGRFTISRDNSKNTLYLQMNSLRAEDTAVYYCAKGVLTTLMNWFDYWGQGTLVTVSS
VL: QSVLTQPPSASGTPGQRVTISCTGSSSNIGSNDVSWYQQLPGTAPKLLIYANSNRPSGVSDRFSGSKSGTSASLAISGLRSEDEADYYCGAWDDSLNGYVFGGGTKLTVLR

EC50 [6]: 33.8 nM
binding result [7]: no binding
binding result [8]: no binding
koff [9]: 0.000563 s⁻¹
kon [9]: 609000 M⁻¹ s⁻¹
EC50 [10]: 1.27 nM
binding result [11]: no binding
Kd [12]: 0.0247 nM
koff [13]: 8.88e-05 s⁻¹
kon [13]: 193000 M⁻¹ s⁻¹
binding result [14]: no binding
binding result [15]: no binding
EC50 [16]: 12.5 nM
EC50 [17]: 196 nM
EC50 [18]: 201 nM
MFI [4]: 3.26
binding result [19]: no binding
B2: chimeric 11F11 antibody (antibody, V domains shown)
VH: EVQLQESGGGLVQPGGSLRLSCATSGFTFSDFYMEWVRQPPGKRLEWIAASRNKANDYTTEYSASVKGRFIVSRDTSQSILYLQMNALRAEDTAIYYCARDAHGKPFAYWGQGTLVTVSA
VL: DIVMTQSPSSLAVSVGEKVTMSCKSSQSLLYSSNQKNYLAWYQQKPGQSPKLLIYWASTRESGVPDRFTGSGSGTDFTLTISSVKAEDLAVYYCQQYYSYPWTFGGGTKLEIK
notes: also called Ch11F11; ch11F11
